In series [1] the target is T1, ParB (Spo0J) (Bacillus subtilis 168, UniProt P26497 1-282).
T1 sequence: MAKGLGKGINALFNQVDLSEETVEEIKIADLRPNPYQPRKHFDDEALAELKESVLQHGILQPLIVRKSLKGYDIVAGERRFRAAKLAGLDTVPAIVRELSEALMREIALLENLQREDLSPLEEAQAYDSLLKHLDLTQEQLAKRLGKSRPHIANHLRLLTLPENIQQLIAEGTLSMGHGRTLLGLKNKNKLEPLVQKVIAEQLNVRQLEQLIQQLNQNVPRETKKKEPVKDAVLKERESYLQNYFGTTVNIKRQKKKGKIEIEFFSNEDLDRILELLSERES
The series is described as follows: SEC-MALS; 80 uM ParB2; 50 mM Hepes-KOH pH 7.5, 100 mM KCl, 2.5 mM MgCl2, 0.1 mg/ml BSA, 1 mM DTT, 20 nM DNA; EMSA also 2.5% Ficoll, room temperature 30 min then ice 5 min, gel at 4 C. Particulars: protein: recombinant; tags: untagged; chain copies: 2; label: 5'-Hex on forward strand; blunt. A general note: Size exclusion chromatography separates by hydrodynamic size, large species first.

Series [2] addresses T1, ParB (Spo0J). The series is described as follows: SEC-MALS; 50 mM Hepes-KOH pH 7.5, 100 mM KCl, 2.5 mM MgCl2, 0.1 mg/ml BSA, 1 mM DTT, 20 nM DNA; EMSA also 2.5% Ficoll, room temperature 30 min then ice 5 min, gel at 4 C. Particulars: protein: recombinant, tags: untagged, chain copies: 2, blunt.
Series [3] has as its target T1, ParB (Spo0J). Kind of series: SEC-MALS; 9 uM ParB2, 10 uM DNA; 81.6 ± 1.9 kDa, one dimer per DNA; 50 mM Hepes-KOH pH 7.5, 100 mM KCl, 2.5 mM MgCl2, 0.1 mg/ml BSA, 1 mM DTT, 20 nM DNA; EMSA also 2.5% Ficoll, room temperature 30 min then ice 5 min, gel at 4 C. The conditions noted are these: protein: recombinant; tags: untagged; chain copies: 2; label: 5'-Hex on forward strand; blunt.

Setting [4] is: label: 5'-Hex on forward strand.

Numbering of substitutions follows the chain as printed.

B1: 24-bp non-specific (dsDNA)
DNA 1: AGAACGTGCCCAGGGAGACAAAGA
DNA 2: TCTTTGTCTCCCTGGGCACGTTCT
As for B1, the binding result in series [1] is reported as “binds”.

B2: 50-bp parS (dsDNA)
DNA 1: CAGCAGTTGAATCAGAATGTTCCACGTGAAACAAAGAAAAAAGAACCTGT
DNA 2: ACAGGTTCTTTTTTCTTTGTTTCACGTGGAACATTCTGATTCAACTGCTG
In the case of B2, in series [2] (label: 5'-Hex on forward strand (SEC-MALS)), the binding result is listed as “binds”.

B3: 100-bp parS (dsDNA)
DNA 1: TGTTCGCCAACTTGAGCAGCTGATTCAGCAGTTGAATCAGAATGTTCCACGTGAAACAAAGAAAAAAGAACCTGTGAAAGATGCGGTTCTAAAAGAACGG
DNA 2: CCGTTCTTTTAGAACCGCATCTTTCACAGGTTCTTTTTTCTTTGTTTCACGTGGAACATTCTGATTCAACTGCTGAATCAGCTGCTCAAGTTGGCGAACA
B3: the binding result in series [2] (setting [4]) was “binds”.

B4: 100-bp non-specific (dsDNA)
DNA 1: B3 DNA 1 with T43C, T46G, A49C, C50A, T52G, A55G
DNA 2: B3 DNA 2 with T46C, A49C, G51T, T52G, A55C, A58G
With B4, in series [2] (setting [4]), the binding result is “binds”.

B5: 24-bp parS (dsDNA)
DNA 1: AGAATGTTCCACGTGAAACAAAGA
DNA 2: TCTTTGTTTCACGTGGAACATTCT
With B5, the binding result in series [3] was “binds”.

(Values after publication PMC4333373, “Specific and non-specific interactions of ParB with DNA: implications for chromosome segregation”.)
